Data on 9 molecules can be found in patent publication US6218168A, “Process for preparing O-acetylserine, L-cysteine and L-cysteine-related products” (Consortium fur elektrochemische Inudstrie GmbH, priority 1995, dated 2001).

The assay deals with serine acetyltransferase. Kind of assay: Serine acetyltransferase enzyme activity test with and without L-cysteine (inhibitor constant Ki, specific activity). Format: biochemical, E. coli. To be noted: for Ki: inhibitor L-cysteine. The text has this:
Any method which enables the activity of the serine acetyltransferase to be determined in the presence of cysteine can be used for determining the cysteine sensitivity of this enzyme. For example, the serine acetyltransferase activity can be determined using the method described by Kredich and Tomkins, J. Biol. Chem. 241: 4955-4965 (1966). In this test, the enzyme test mixture contains the substrate, L-serine, and the cofactor, acetyl-coenzyme A. The reaction is started by adding enzyme and monitored, in a spectro photometer, by observing the decrease in absorption at 232 nm which is elicited by the cleavage of the thioester bond in the acetyl-coenzyme A.
The above-described enzyme test is suitable for determining the cysteine sensitivity of any serine acetyltransferase enzyme, including the enzymes which have a modified carboxyl terminus. Inhibition of the serine acetyltransferase activity is tested in the presence of differing concentrations of L-cysteine in the reaction mixture. The catalytic activity of the different serine acetyltransferase enzymes is determined in the presence and absence of L-cysteine, and the inhibitor constant, Ki, is ascertained from this (Kredich and Tomkins, J. Biol. Chem., 241, 4955-4965 (1966)).
In order to investigate the biochemical basis of the cysteine secretion of the revertants, the activity of the serine acetyltransferase was determined in vitro, and the ability of cysteine to inhibit the enzyme was measured. For the determination, use was made of S30 extracts (cell homogenates centrifuged at 30,000 g and 4° C. for 20 minutes) of the selected revertants, the starting strains and the comparison strain, E. coli W3110 (ATTC 27325).
The biochemical parameters such as enzyme activity and inhibitor constant, Ki, were determined in an analogous manner to that described in Example 1.
The plasmids resulting from this cloning were designated pACYC184/cysE-Del in accordance with the extent of their deletion (cf. FIG. 9 for the plasmid map). Determination of the enzymic activity and the inhibitor constant, Ki, and also the cross-feeding test, were carried out in analogy with the description in Example 1. DNA sequence analysis was used to confirm that the deletions had been correctly introduced.
Determination of the enzymic activity and of the inhibitor constant Ki, and also the cross-feeding test, were carried out in analogy with the description in Example 1.

The mark [1] stands for this setting: Table 1b, carboxyterminal deletions.
Where [2] appears, read: Table 6, carboxyterminal deletions.
[3] abbreviates: Table 1a, 1 mM L-serine, 0.1 mM acetyl-CoA.
The mark [4] stands for this setting: Table 1a, serine acetyltransferase activity.
[5] abbreviates: Table 2, alleles from chemical mutagenesis.

B1: cysE-Del248: carboxyterminal deletion of 25 amino acids, terminal Asp248 (protein, UniProt P0A9D4 1-248, looked up, fragment)
chain: MSCEELEIVWNNIKAEARTLADCEPMLASFYHATLLKHENLGSALSYMLANKLSSPIMPAIAIREVVEEAYAADPEMIASAACDIQAVRTRDPAVDKYSTPLLYLKGFHALQAYRIGHWLWNQGRRALAIFLQNQVSVTFQVDIHPAAKIGRGIMLDHATGIVVGETAVIENDVSILQSVTLGGTGKSGGDRHPKIREGVMIGAGAKILGNIEVGRGAKIGAGSVVLQPVPPHTTAAGVPARIVGKPD
For B1, under setting [1], the spec. act. is reported as 0.270 μmol/min x mg and the affinity, expressed as Ki, was 12.5 µM. Further, the affinity under setting [2], expressed as Ki, was 12.5 µM.

B2: cysE-Del257: carboxyterminal deletion of 16 amino acids, terminal Asp257 (protein, UniProt P0A9D4 1-257, looked up, fragment)
chain: MSCEELEIVWNNIKAEARTLADCEPMLASFYHATLLKHENLGSALSYMLANKLSSPIMPAIAIREVVEEAYAADPEMIASAACDIQAVRTRDPAVDKYSTPLLYLKGFHALQAYRIGHWLWNQGRRALAIFLQNQVSVTFQVDIHPAAKIGRGIMLDHATGIVVGETAVIENDVSILQSVTLGGTGKSGGDRHPKIREGVMIGAGAKILGNIEVGRGAKIGAGSVVLQPVPPHTTAAGVPARIVGKPDSDKPSMDMD
Consider B2, for which, under setting [1], the spec. act. came to 0.394 μmol/min x mg and the Ki was found to be 7.5 µM. Under setting [2], this molecule came in with an inhibition constant Ki of 7.5 µM.

B3: cysEII: feedback-resistant serine acetyltransferase allele, Gly238->Ser238 (protein, UniProt P0A9D4 1-273, looked up, variant G238S)
Serine acetyltransferase: MSCEELEIVWNNIKAEARTLADCEPMLASFYHATLLKHENLGSALSYMLANKLSSPIMPAIAIREVVEEAYAADPEMIASAACDIQAVRTRDPAVDKYSTPLLYLKGFHALQAYRIGHWLWNQGRRALAIFLQNQVSVTFQVDIHPAAKIGRGIMLDHATGIVVGETAVIENDVSILQSVTLGGTGKSGGDRHPKIREGVMIGAGAKILGNIEVGRGAKIGAGSVVLQPVPPHTTAASVPARIVGKPDSDKPSMDMDQHFNGINHTFEYGDGI
Regarding B3, the inhibition constant (Ki) was 10 µM under setting [3] and 10 µM under setting [5]. This molecule displayed a spec. act. under setting [4] of 0.068 µmol/min/mg.

B4: cysEIII: feedback-resistant serine acetyltransferase allele, Gly165->Asp165 (protein, UniProt P0A9D4 1-273, looked up, variant G165D)
Serine acetyltransferase: MSCEELEIVWNNIKAEARTLADCEPMLASFYHATLLKHENLGSALSYMLANKLSSPIMPAIAIREVVEEAYAADPEMIASAACDIQAVRTRDPAVDKYSTPLLYLKGFHALQAYRIGHWLWNQGRRALAIFLQNQVSVTFQVDIHPAAKIGRGIMLDHATGIVVDETAVIENDVSILQSVTLGGTGKSGGDRHPKIREGVMIGAGAKILGNIEVGRGAKIGAGSVVLQPVPPHTTAAGVPARIVGKPDSDKPSMDMDQHFNGINHTFEYGDGI
In the case of B4, the Ki reads like this: under setting [3], 10 µM; under setting [5], 10 µM. The same molecule showed a spec. act. under setting [4] of 0.030 µmol/min/mg.

B5: cysE-Del259: carboxyterminal deletion of 14 amino acids, terminal His259 (protein, UniProt P0A9D4 1-259, looked up, fragment)
chain: MSCEELEIVWNNIKAEARTLADCEPMLASFYHATLLKHENLGSALSYMLANKLSSPIMPAIAIREVVEEAYAADPEMIASAACDIQAVRTRDPAVDKYSTPLLYLKGFHALQAYRIGHWLWNQGRRALAIFLQNQVSVTFQVDIHPAAKIGRGIMLDHATGIVVGETAVIENDVSILQSVTLGGTGKSGGDRHPKIREGVMIGAGAKILGNIEVGRGAKIGAGSVVLQPVPPHTTAAGVPARIVGKPDSDKPSMDMDQH
Molecule B5 returned a spec. act. under setting [1] of 0.328 μmol/min x mg. The Ki under setting [1] worked out at 7.5 µM and the Ki under setting [2] was determined as 7.5 µM.

B6: cysE-Del258: carboxyterminal deletion of 15 amino acids, terminal Gln258 (protein, UniProt P0A9D4 1-258, looked up, fragment)
chain: MSCEELEIVWNNIKAEARTLADCEPMLASFYHATLLKHENLGSALSYMLANKLSSPIMPAIAIREVVEEAYAADPEMIASAACDIQAVRTRDPAVDKYSTPLLYLKGFHALQAYRIGHWLWNQGRRALAIFLQNQVSVTFQVDIHPAAKIGRGIMLDHATGIVVGETAVIENDVSILQSVTLGGTGKSGGDRHPKIREGVMIGAGAKILGNIEVGRGAKIGAGSVVLQPVPPHTTAAGVPARIVGKPDSDKPSMDMDQ
For B6, under setting [1], the spec. act. turned out to be 0.256 μmol/min x mg. Also, the inhibition constant (Ki) came to 5 µM under setting [1] and 5 µM under setting [2].

B7: cysE-Del250: carboxyterminal deletion of 23 amino acids, terminal Asp250 (protein, UniProt P0A9D4 1-250, looked up, fragment)
chain: MSCEELEIVWNNIKAEARTLADCEPMLASFYHATLLKHENLGSALSYMLANKLSSPIMPAIAIREVVEEAYAADPEMIASAACDIQAVRTRDPAVDKYSTPLLYLKGFHALQAYRIGHWLWNQGRRALAIFLQNQVSVTFQVDIHPAAKIGRGIMLDHATGIVVGETAVIENDVSILQSVTLGGTGKSGGDRHPKIREGVMIGAGAKILGNIEVGRGAKIGAGSVVLQPVPPHTTAAGVPARIVGKPDSD
Under setting [1], B7 returned a spec. act. of 0.405 μmol/min x mg and an inhibition constant (Ki) of 20 µM. For the same molecule, the affinity under setting [2], expressed as Ki, was 20 µM.

B8: cysE-Del249: carboxyterminal deletion of 24 amino acids, terminal Ser249 (protein, UniProt P0A9D4 1-249, looked up, fragment)
chain: MSCEELEIVWNNIKAEARTLADCEPMLASFYHATLLKHENLGSALSYMLANKLSSPIMPAIAIREVVEEAYAADPEMIASAACDIQAVRTRDPAVDKYSTPLLYLKGFHALQAYRIGHWLWNQGRRALAIFLQNQVSVTFQVDIHPAAKIGRGIMLDHATGIVVGETAVIENDVSILQSVTLGGTGKSGGDRHPKIREGVMIGAGAKILGNIEVGRGAKIGAGSVVLQPVPPHTTAAGVPARIVGKPDS
Consider B8, for which the spec. act. under setting [1] came out at 0.420 μmol/min x mg. The inhibition constant (Ki) runs as follows: under setting [1], 15 µM; under setting [2], 15 µM.

B9: cysE-Del256: carboxyterminal deletion of 17 amino acids, terminal Met256 (protein, UniProt P0A9D4 1-256, looked up, fragment)
chain: MSCEELEIVWNNIKAEARTLADCEPMLASFYHATLLKHENLGSALSYMLANKLSSPIMPAIAIREVVEEAYAADPEMIASAACDIQAVRTRDPAVDKYSTPLLYLKGFHALQAYRIGHWLWNQGRRALAIFLQNQVSVTFQVDIHPAAKIGRGIMLDHATGIVVGETAVIENDVSILQSVTLGGTGKSGGDRHPKIREGVMIGAGAKILGNIEVGRGAKIGAGSVVLQPVPPHTTAAGVPARIVGKPDSDKPSMDM
B9: under setting [1], the spec. act. is reported as 0.366 μmol/min x mg and the inhibition constant (Ki) was determined as 12.5 µM. Affinity under setting [2] was put at a Ki of 12.5 µM.

By Ki is commonly meant the equilibrium dissociation constant of an inhibitor or competing ligand from its target. Read a low Ki as a stronger hold on the target.
